From paper PMC4140821, “Structural and Biochemical Characterization of the Cop9 Signalosome CSN5/CSN6 Heterodimer” (PLoS ONE, 2014) come the findings set out here.

Series [1] deals with the molecule itself. Briefly: crystal structure; CSN6^ΔC alone; crystals at 18°C in 0.2 M tri-sodium citrate, 0.1 M Bis-Tris propane pH 6.5, 20% PEG3350; dimer generated by the crystallographic 2-fold.
Series [2] deals with T1, CSN5^ΔC,WT (human CSN5 1–257 fragment) (human, UniProt Q92905 1-257).
T1 construct: COP9 signalosome subunit 5 (CSN5, Jab1), human, residues 1-257 (MPN domain with N- and C-terminal appendices); also called CSN5 catalytic domain; Jab1 fragment
Briefly: ITC; CSN6^ΔC (WT and variants; 1 mM, 30 injections of 1.8 µL) injected into CSN5^ΔC (WT and variants; 100 µM) in the cell; 20°C; 20 mM Na MES pH 6.5, 75 mM NaCl; one site model; apparent. The following applies: both partners purified.

Another series addresses T2, CSN5^ΔC,R106T (human, UniProt Q92905 1-257, R106T).
T2 construct: COP9 signalosome subunit 5 (CSN5, Jab1), human, residues 1-257, R106T in the Ins-1 region; also called conformationally-relaxed CSN5^ΔC variant; R106T variant
The description is as above. The following applies: both partners purified.

Residue numbers refer to the chain shown, from its start. Numbers in names are those of the source.

T1 sequence (Q92905 1-257, stated change not applied): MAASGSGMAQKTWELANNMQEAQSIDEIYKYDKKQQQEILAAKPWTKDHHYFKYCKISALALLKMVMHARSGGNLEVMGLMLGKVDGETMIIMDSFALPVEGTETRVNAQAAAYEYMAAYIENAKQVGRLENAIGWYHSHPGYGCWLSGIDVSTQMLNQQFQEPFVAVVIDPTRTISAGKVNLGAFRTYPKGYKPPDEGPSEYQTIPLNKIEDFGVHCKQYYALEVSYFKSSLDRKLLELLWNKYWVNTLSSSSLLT
T2 sequence (Q92905 1-257 R106T): as the sequence (Q92905 1-257, stated change not applied) above, with R106T counted along it

B1: CSN6^ΔC (human CSN6 31–211 fragment) (domain or fragment, UniProt Q7L5N1 31-211, looked up)
chain: MACGVTGSVSVALHPLVILNISDHWIRMRSQEGRPVQVIGALIGKQEGRNIEVMNSFELLSHTVEEKIIIDKEYYYTKEEQFKQVFKELEFLGWYTTGGPPDPSDIHVHKQVCEIIESPLFLKLNPMTKHTDLPVSVFESVIDIINGEATMLFAELTYTLATEEAERIGVDHVARMTATGS
notes: COP9 signalosome subunit 6 (CSN6), human, residues 31-211 (MPN domain with a C-terminal extension); Cloned in pGEX-6P1; Uniformly 15N-labelled for NMR; also called CSN6 N-terminal domain; CSN6 MPN domain; source: LB or 15NH4Cl M9 medium for NMR; not shown: GST, N-terminal, cleaved
As to B1, the binding result (in series [1]; in the series with CSN5^ΔC,R106T) was “binds” in each case. The Kd in series [2] worked out at 6 ± 1 µM.

B2: CSN6^ΔC,V115E (domain or fragment, human, UniProt Q7L5N1 31-211, looked up)
chain: B1 chain with V85E
notes: COP9 signalosome subunit 6 (CSN6), human, residues 31-211, V115E; everywhere else V115E; also called V115E variant; not shown: GST, N-terminal, cleaved
Consider B2, for which the “fold reduction in binding against WT CSN6^ΔC” value in series [2] amounted to 5 fold.
